Measured values from the supplement of paper PMC9732359.
± gives the uncertainty stated by the source.

Test: protein stability index of a GFP-peptide fusion (yeast GPS) (PSI 1-4); higher = more stable; sorted into four equal gates, so the index is relative within each strain
Outline: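 The protein stability index of a peptide was calculated by multiplying its read frequency in each gate by that gate's number and adding the products. The peptides were tiled 17-residue stretches of yeast proteins, fused downstream of GFP on a Cherry-expressing plasmid and carried in yeast as a pooled library. Mid-log cultures in leucine-free medium were sorted into four equal gates by GFP/Cherry ratio, and each gate's plasmids were PCR-amplified and Illumina-sequenced.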

NNSSSGMNNASAGLFGS [YGL172W/NUP49] gave a protein stability index (doa10∆) of 3.18 ± 0.084, a protein stability index (pdr5∆) of 3.08 ± 0.051 and a protein stability index (san1∆) of 3.29 ± 0.036. For the same sequence, the protein stability index (ubr1∆) was 3.35 ± 0.068.

FLNEARDKAGRLAEVNL [RPO21] gave a protein stability index (doa10∆) of 2.05 ± 0.074, a protein stability index (pdr5∆) of 1.55 ± 0.054 and a protein stability index (san1∆) of 2.06 ± 0.13. The protein stability index (ubr1∆) was 1.47 ± 0.055.

In the case of KIRPWRTFRLNECVCTP [RPO31], the protein stability index (doa10∆) is reported as 1.31 ± 0.065, the protein stability index (pdr5∆) is reported as 1.99 ± 0.064 and the protein stability index (san1∆) is reported as 1.73 ± 0.18. The protein stability index (ubr1∆) was 1.24 ± 0.092.

KLLAISKFNNADDVFTG [RPC31] showed a protein stability index (doa10∆) of 3.03 ± 0.15, a protein stability index (pdr5∆) of 2.9 ± 0.2 and a protein stability index (san1∆) of 2.92 ± 0.13. The protein stability index (ubr1∆) was 2.57 ± 0.12.

VPLIKVADAKQLGEWAG [RPS12] gave a protein stability index (doa10∆) of 3.17 ± 0.21, a protein stability index (pdr5∆) of 3.49 ± 0.23 and a protein stability index (ubr1∆) of 3.17 ± 0.12.

In the case of FILADAGLEITSDNLLT [RPP1B], the protein stability index (doa10∆) is reported as 2.55 ± 0.052, the protein stability index (pdr5∆) is reported as 2.77 ± 0.054 and the protein stability index (san1∆) is reported as 2.65 ± 0.076. For the same sequence, the protein stability index (ubr1∆) was 2.73 ± 0.049.

AVPAATPANTNNSTSNA [SWI1] gave a protein stability index (doa10∆) of 2.52 ± 0.06, a protein stability index (pdr5∆) of 2.99 ± 0.053 and a protein stability index (san1∆) of 2.65 ± 0.053. The protein stability index (ubr1∆) was 2.96 ± 0.04.

With WIVVLPWFWLLPLWHLL [POP1] the protein stability index (doa10∆) was 2.4 ± 0.092, the protein stability index (pdr5∆) was 1.21 ± 0.057 and the protein stability index (san1∆) was 1.14 ± 0.13. For the same sequence, the protein stability index (ubr1∆) was 1.07 ± 0.046.

With DSNGDFNEDQLFSLLEL [RRP46] the protein stability index (doa10∆) was 2.83 ± 0.16, the protein stability index (pdr5∆) was 2.82 ± 0.16 and the protein stability index (san1∆) was 3.31 ± 0.069. It also gave a protein stability index (ubr1∆) of 2.98 ± 0.1.

Work on IYRYKYKVMHQIRACKD [PRP8] yielded a protein stability index (doa10∆) of 2.56 ± 0.099, a protein stability index (pdr5∆) of 2.14 ± 0.086 and a protein stability index (san1∆) of 2.45 ± 0.078. It also gave a protein stability index (ubr1∆) of 1.99 ± 0.088.

With ESEKLVTPEDVMTISSL [RPC82] the protein stability index (doa10∆) was 3.23 ± 0.083, the protein stability index (pdr5∆) was 3.13 ± 0.078 and the protein stability index (san1∆) was 3.05 ± 0.059. The protein stability index (ubr1∆) was 3.26 ± 0.072.

In the case of QESFNSVQNLDQLLTDL [NUT1], the protein stability index (doa10∆) is reported as 3.22 ± 0.092, the protein stability index (pdr5∆) is reported as 3.2 ± 0.095 and the protein stability index (san1∆) is reported as 3.04 ± 0.049. The protein stability index (ubr1∆) was 3.17 ± 0.068.

With QTKENKRCVGVILGDAN [RPN8] the protein stability index (doa10∆) was 2.89 ± 0.053, the protein stability index (pdr5∆) was 2.9 ± 0.05 and the protein stability index (san1∆) was 2.74 ± 0.055. It also gave a protein stability index (ubr1∆) of 2.73 ± 0.04.

In the case of KIQETELKIRSKTENVR [RPT6], the protein stability index (doa10∆) is reported as 2.35 ± 0.11, the protein stability index (pdr5∆) is reported as 2.61 ± 0.088 and the protein stability index (san1∆) is reported as 2.23 ± 0.16. For the same sequence, the protein stability index (ubr1∆) was 2.57 ± 0.073.

Work on EDEEDDNISSFHSAVEN [YCG1] yielded a protein stability index (doa10∆) of 3.12 ± 0.069, a protein stability index (pdr5∆) of 3.2 ± 0.095 and a protein stability index (san1∆) of 3.26 ± 0.052. For the same sequence, the protein stability index (ubr1∆) was 2.6 ± 0.063.

With VSNRVAAPARAGAVAPE [RPP0] the protein stability index (doa10∆) was 2.06 ± 0.11, the protein stability index (pdr5∆) was 2.54 ± 0.097 and the protein stability index (san1∆) was 2.64 ± 0.11. The protein stability index (ubr1∆) was 2.56 ± 0.17.

ELVFSKGVYLILSEILC [YML103C/NUP188] showed a protein stability index (doa10∆) of 1.93 ± 0.049, a protein stability index (pdr5∆) of 1.54 ± 0.048 and a protein stability index (san1∆) of 1.71 ± 0.07. The protein stability index (ubr1∆) was 1.51 ± 0.026.

Sequence PHIIAVACLFITISIHG [SSN8] has a protein stability index (doa10∆) of 1.17 ± 0.055, a protein stability index (pdr5∆) of 1.3 ± 0.049 and a protein stability index (san1∆) of 1.34 ± 0.11. For the same sequence, the protein stability index (ubr1∆) was 1.47 ± 0.062.

AKAVWENIIIVGGTTSI [ARP9] gave a protein stability index (doa10∆) of 1.89 ± 0.044, a protein stability index (pdr5∆) of 2.12 ± 0.057 and a protein stability index (san1∆) of 1.67 ± 0.081. It also gave a protein stability index (ubr1∆) of 2.48 ± 0.054.

Work on LISRLCPNSTGAELRSV [RPT1] yielded a protein stability index (doa10∆) of 1.85 ± 0.043, a protein stability index (pdr5∆) of 1.77 ± 0.047 and a protein stability index (san1∆) of 1.84 ± 0.073. It also gave a protein stability index (ubr1∆) of 1.73 ± 0.042.

Work on SDVLFEFTKINTPLVGA [YJL039C/NUP192] yielded a protein stability index (doa10∆) of 1.66 ± 0.042, a protein stability index (pdr5∆) of 1.66 ± 0.045 and a protein stability index (san1∆) of 1.45 ± 0.088. The protein stability index (ubr1∆) was 1.47 ± 0.037.

For KPMTAYARADTHFLLNI [RRP6], the protein stability index (doa10∆) was 2.26 ± 0.05, the protein stability index (pdr5∆) was 2.17 ± 0.047 and the protein stability index (san1∆) was 2.34 ± 0.06. For the same sequence, the protein stability index (ubr1∆) was 1.87 ± 0.046.

Sequence GIRIKGKIVGFDEFMNV [SME1] has a protein stability index (doa10∆) of 3.15 ± 0.068, a protein stability index (pdr5∆) of 2.96 ± 0.098 and a protein stability index (san1∆) of 3.23 ± 0.076. The protein stability index (ubr1∆) was 3.12 ± 0.099.

QQPQTNTAPGLGNTVST [YGR119C/NUP57] gave a protein stability index (doa10∆) of 3.03 ± 0.097, a protein stability index (pdr5∆) of 3.34 ± 0.1 and a protein stability index (san1∆) of 3.04 ± 0.073. For the same sequence, the protein stability index (ubr1∆) was 3.06 ± 0.058.

For TDENTPSADGADKKDDS [ITC1], the protein stability index (doa10∆) was 3.04 ± 0.11, the protein stability index (pdr5∆) was 3.11 ± 0.062 and the protein stability index (san1∆) was 3.36 ± 0.064. It also gave a protein stability index (ubr1∆) of 2.98 ± 0.061.

In the case of TSPFGGARPGRVARRNA [RPS9A], the protein stability index (doa10∆) is reported as 2.8 ± 0.15, the protein stability index (pdr5∆) is reported as 2.84 ± 0.28 and the protein stability index (san1∆) is reported as 3.02 ± 0.15. The protein stability index (ubr1∆) was 3.28 ± 0.1.

Sequence TADAEILINTARIHAQN [PRE9] has a protein stability index (doa10∆) of 2.92 ± 0.094, a protein stability index (pdr5∆) of 2.85 ± 0.073 and a protein stability index (san1∆) of 2.83 ± 0.099. For the same sequence, the protein stability index (ubr1∆) was 2.96 ± 0.072.

For HTEDESTKELKFSDIIQ [BRN1], the protein stability index (doa10∆) was 3.11 ± 0.2, the protein stability index (pdr5∆) was 2.89 ± 0.21 and the protein stability index (san1∆) was 3.23 ± 0.22. The protein stability index (ubr1∆) was 3.41 ± 0.094.

In the case of YLMDSKNVRTRIKLATT [RRI1], the protein stability index (doa10∆) is reported as 2.09 ± 0.08, the protein stability index (pdr5∆) is reported as 2.07 ± 0.073 and the protein stability index (san1∆) is reported as 1.61 ± 0.099. For the same sequence, the protein stability index (ubr1∆) was 1.99 ± 0.061.

With CRKCYARLPPRATNCRK [RPL40A] the protein stability index (doa10∆) was 3.09 ± 0.23, the protein stability index (pdr5∆) was 3.71 ± 0.28 and the protein stability index (san1∆) was 3.13 ± 0.14. For the same sequence, the protein stability index (ubr1∆) was 2.92 ± 0.13.

GSKISSNDLDKFFQKKI [YGL172W/NUP49] gave a protein stability index (doa10∆) of 1.72 ± 0.069, a protein stability index (pdr5∆) of 2.02 ± 0.076 and a protein stability index (san1∆) of 1.7 ± 0.074. The protein stability index (ubr1∆) was 2.27 ± 0.057.

WRKDAQGNYPTTSYIKE [DPB4] showed a protein stability index (doa10∆) of 2.94 ± 0.092, a protein stability index (pdr5∆) of 2.88 ± 0.069 and a protein stability index (san1∆) of 2.92 ± 0.069. The protein stability index (ubr1∆) was 2.56 ± 0.064.

LKTFHFAGVASMNVTLG [RPO31] showed a protein stability index (doa10∆) of 2.17 ± 0.081, a protein stability index (pdr5∆) of 2.25 ± 0.048 and a protein stability index (san1∆) of 2.34 ± 0.093. For the same sequence, the protein stability index (ubr1∆) was 1.98 ± 0.055.

Work on LVREIAQDFKTDLRFQS [HHT1] yielded a protein stability index (doa10∆) of 2.55 ± 0.097, a protein stability index (pdr5∆) of 3 ± 0.078 and a protein stability index (san1∆) of 2.65 ± 0.076. It also gave a protein stability index (ubr1∆) of 2.88 ± 0.099.

In the case of DDVRDFVIRREVTKGEK [RPS6A], the protein stability index (doa10∆) is reported as 3.37 ± 0.14, the protein stability index (pdr5∆) is reported as 3.4 ± 0.094 and the protein stability index (san1∆) is reported as 3.08 ± 0.14. The protein stability index (ubr1∆) was 3.62 ± 0.18.

In the case of AFNQVEIRPEMLGHYLG [RPS15], the protein stability index (doa10∆) is reported as 2.92 ± 0.12, the protein stability index (pdr5∆) is reported as 3.09 ± 0.19 and the protein stability index (san1∆) is reported as 3.44 ± 0.12. For the same sequence, the protein stability index (ubr1∆) was 3.19 ± 0.15.

For EMGKLRERDITSLFHKF [RRI2], the protein stability index (doa10∆) was 1.8 ± 0.071, the protein stability index (pdr5∆) was 1.83 ± 0.071 and the protein stability index (san1∆) was 1.79 ± 0.17. For the same sequence, the protein stability index (ubr1∆) was 1.95 ± 0.058.

Work on VYNLALKCAERQLTSME [NUT1] yielded a protein stability index (doa10∆) of 2.38 ± 0.073, a protein stability index (pdr5∆) of 2.2 ± 0.052 and a protein stability index (san1∆) of 2.09 ± 0.07. The protein stability index (ubr1∆) was 2.31 ± 0.029.

Sequence QDDDDYVDTATAKRKSR [IRR1] has a protein stability index (doa10∆) of 2.83 ± 0.061, a protein stability index (pdr5∆) of 2.94 ± 0.054 and a protein stability index (san1∆) of 2.15 ± 0.083. For the same sequence, the protein stability index (ubr1∆) was 2.93 ± 0.039.

In the case of AKKNNFIEDLAPEQQVQ [UBP6], the protein stability index (doa10∆) is reported as 2.81 ± 0.073, the protein stability index (pdr5∆) is reported as 3.15 ± 0.08 and the protein stability index (san1∆) is reported as 2.99 ± 0.08. For the same sequence, the protein stability index (ubr1∆) was 3.06 ± 0.065.

Work on NDDSSSMNATMRNFSKQ [YDL088C/ASM4] yielded a protein stability index (doa10∆) of 2.76 ± 0.087, a protein stability index (pdr5∆) of 3.14 ± 0.11 and a protein stability index (san1∆) of 2.71 ± 0.13. For the same sequence, the protein stability index (ubr1∆) was 2.93 ± 0.091.

TTDSLTKVLQADLPGSY [YMR129W/POM152] gave a protein stability index (doa10∆) of 2.38 ± 0.082, a protein stability index (pdr5∆) of 2.79 ± 0.14 and a protein stability index (san1∆) of 2.49 ± 0.1. For the same sequence, the protein stability index (ubr1∆) was 2.43 ± 0.078.

For LDGVSYLHQNWVLHRDL [SSN3], the protein stability index (doa10∆) was 2.34 ± 0.11, the protein stability index (pdr5∆) was 2.11 ± 0.081 and the protein stability index (san1∆) was 2.77 ± 0.19. The protein stability index (ubr1∆) was 2.24 ± 0.087.

LIGCIDEAKDFIVSGTA [PUP3] gave a protein stability index (doa10∆) of 2.59 ± 0.058, a protein stability index (pdr5∆) of 2.67 ± 0.061 and a protein stability index (san1∆) of 2.66 ± 0.053. For the same sequence, the protein stability index (ubr1∆) was 3.01 ± 0.044.
